According to patent US20040092720A1 (US Dept. of Health and Human Services, published 2004):

B1: Peptide D54 (peptide)
peptide: GGSLAFGTLACIAIVLRFKKT
notes: alanine-scan variant of the domain IV 21-mer
B2: Peptide D55 (peptide)
peptide: GGSLAFGTALCIAIVLRFKKT
notes: as for B1
B3: Peptide D48 (peptide)
peptide: GGSLAFGTLLCIAIVLAFKKT
notes: as for B1
B4: Peptide D46 (peptide)
peptide: GGSLAFGTLLCIAIVLRFAKT
notes: as for B1
B5: Peptide D56 (peptide)
peptide: GGSLAFGALLCIAIVLRFKKT
notes: as for B1
B6: Peptide D49 (peptide)
peptide: GGSLAFGTLLCIAIVARFKKT
notes: as for B1
B7: Peptide D44 (peptide)
peptide: GGSLAFGTLLCIAIVLRFKKA
notes: as for B1
B8: Peptide D51 (peptide)
peptide: GGSLAFGTLLCIAAVLRFKKT
notes: as for B1
B9: Peptide D45 (peptide)
peptide: GGSLAFGTLLCIAIVLRFKAT
notes: as for B1
B10: Peptide D52 (peptide)
peptide: GGSLAFGTLLCAAIVLRFKKT
notes: as for B1
B11: Peptide D47 (peptide)
peptide: GGSLAFGTLLCIAIVLRAKKT
notes: as for B1
B12: Peptide D53 (peptide)
peptide: GGSLAFGTLLAIAIVLRFKKT
notes: as for B1
B13: Peptide D50 (peptide)
peptide: GGSLAFGTLLCIAIALRFKKT
notes: as for B1
B14: Peptide D57 (peptide)
peptide: GGSLAFATLLCIAIVLRFKKT
notes: as for B1

Each binder was assayed against T1, recombinant human IL-6 (human, UniProt P05231 30-212, labeled with radioactive iodine) (assay: radioiodinated IL-6 on peptide array).
T1 construct: Labeled probe in solution, added to wells that carry the synthetic peptides; also called IL-6 ligand; Interleukin-6

Binder | Counts/minute bound
ERPEDLQLVDHVDGGDGILPRQQY [Peptide E80] | 1210 counts/minute
VSAADAFGPGTEGQVERFETVGME [Peptide E88] | 1090 counts/minute
NEEDFVRLKQQISDHISQSCGSGQ [Peptide E85] | 1110 counts/minute
TEGQVERFETVGMEAATDEGMPKS [Peptide E89] | 1130 counts/minute
GSGQMKMFQEVSAADAFGPGTEGQ [Peptide E87] | 1000 counts/minute
VPSVQVFSRSESTQPLLDSEERPE [Peptide E78] | 1230 counts/minute
MPKSYLPQTVRQGGYMPQ [Peptide E91] | 1230 counts/minute
QISDHISQSCGSGQMKMFQEVSAA [Peptide E86] | 1240 counts/minute
TVVHSGYRHQVPSVQVFSRSESTQ [Peptide E77] | 1250 counts/minute
VGMEAATDEGMPKSYLPQTVRQGG [Peptide E90] | 1380 counts/minute
QHESSPDISHFERSKQVSSVNEED [Peptide E83] | 1250 counts/minute
HVDGGDGILPRQQYFKQNCSQHES [Peptide E81] | 1100 counts/minute
FERSKQVSSVNEEDFVRLKQQISD [Peptide E84] | 1020 counts/minute
QNTSSTVQYSTVVHSGYRHQVPSV [Peptide E76] | 1200 counts/minute
ESTQPLLDSEERPEDLQLVDHVDG [Peptide E79] | 1380 counts/minute
RQQYFKQNCSQHESSPDISHFERS [Peptide E82] | 1090 counts/minute

These binders were tested against T1, recombinant human IL-6 (assay: radioiodinated IL-6 on peptide array; experiment D1-D10).
Description: (§1) Synthetic peptide arrays were constructed in 96-well microtiter plates in accordance with the method set forth in WO 91/02714 (Saxinger), and used to test the binding of recombinant human IL-6 that had been labeled with radioactive iodine (radiolabeling by standard methods). After incubating the radiolabeled IL-6 ligand in a well with each synthetic peptide, a washing step was performed to remove unbound label, and the relative level of radioactivity remaining in each well of the plate was evaluated to determine the relative affinity of each peptide for IL-6 ligand.

Binder | Counts/minute bound
SVPLPTFLVAGGSLAFGTLLC [Peptide D3] | 19800 counts/minute
ATSLPVQDSSSVPLPTFLVAG [Peptide D1] | 4000 counts/minute
VQDSSSVPLPTFLVAGGSLAF [Peptide D2] | 4520 counts/minute
TFLVAGGSLAFGTLLCIAIVL [Peptide D4] | 32000 counts/minute
GGSLAFGTLLCIAIVLRFKKT (also called D11; D27) [Peptide D5] | 159000 counts/minute

What follows are binders tested against T1, recombinant human IL-6 (assay: radioiodinated IL-6 on peptide array; experiment D11-D57).
Description: as §1

Binder | Counts/minute bound | Counts/minute bound (counts/minute)
LLCIAIVLRFKKT [Peptide D35] | 15500 counts/minute | 
LAFGTLLCIAIVLRFKKT [Peptide D30] | 22700 counts/minute | 
AFGTLLCIAIVLRFKKT [Peptide D31] | 24000 counts/minute | 
CIAIVLRFKKT [Peptide D37] | 8350 counts/minute | 
GGSLAFGTLLCIAIVL [Peptide D16] | 2460 counts/minute | 
IAIVLRFKKT [Peptide D38] | 6800 counts/minute | 
GSLAFGTLLCIAIVLRFKKT [Peptide D28] | 26400 counts/minute | 
LRFKKT [Peptide D42] |  | 1960
GGSLAFGTLLCIAIVLRF [Peptide D14] | 7690 counts/minute | 
GGSLAF (also called GGSLAF) [Peptide D26] | 1050 counts/minute | 
GGSLAFGTLLCIAIV [Peptide D17] | 1340 counts/minute | 
GGSLAFGTLLCI [Peptide D20] | 1200 counts/minute | 
GGSLAFGTLLCIAIVLR [Peptide D15] | 3950 counts/minute | 
GTLLCIAIVLRFKKT [Peptide D33] | 15700 counts/minute | 
TLLCIAIVLRFKKT [Peptide D34] | 12400 counts/minute | 
SLAFGTLLCIAIVLRFKKT [Peptide D29] | 24700 counts/minute | 
LCIAIVLRFKKT [Peptide D36] | 12400 counts/minute | 
GGSLAFGTLLC [Peptide D21] | 1110 counts/minute | 
GGSLAFGTLLCIAI [Peptide D18] | 1180 counts/minute | 
GGSLAFGTLLCIAIVLRFK [Peptide D13] | 16100 counts/minute | 
GGSLAFGTLLCIAIVLRFKK [Peptide D12] | 18100 counts/minute | 
AIVLRFKKT [Peptide D39] | 4880 counts/minute | 

Binder | Counts/minute bound | Counts/minute bound (counts/minute)
VLRFKKT (also called VLRFKKT) [Peptide D41] | 2550 counts/minute | 
GGSLAFGTL [Peptide D23] | 997 counts/minute | 
B1 | 22000 counts/minute | 
B2 | 22100 counts/minute | 
B3 | 29400 counts/minute | 
B4 | 30800 counts/minute | 
B5 | 23000 counts/minute | 
B6 | 22100 counts/minute | 
B7 | 21400 counts/minute | 
B8 | 28500 counts/minute | 
B9 | 28600 counts/minute | 
B10 | 27700 counts/minute | 
B11 | 20900 counts/minute | 
B12 | 34900 counts/minute | 
B13 | 17900 counts/minute | 
B14 | 22300 counts/minute | 
GGSLAFG (also called GGSLAFG) [Peptide D25] | 952 counts/minute | 
IVLRFKKT [Peptide D40] | 4450 counts/minute | 
FGTLLCIAIVLRFKKT [Peptide D32] | 21800 counts/minute | 
GGSLAFGT [Peptide D24] | 981 counts/minute | 
GGSLAFGTLLCIA [Peptide D19] | 1150 counts/minute | 
GGSLAFGTLL [Peptide D22] | 1000 counts/minute | 
